Laboratory results taken from US20020098183A1 (published 2002).

Biological target: T1, human L-selectin (on human leukocytes) (human, UniProt P14151 39-372)
T1 construct: whole, on cells; also called LECAM-1; Lam-1
T1 sequence (looked up): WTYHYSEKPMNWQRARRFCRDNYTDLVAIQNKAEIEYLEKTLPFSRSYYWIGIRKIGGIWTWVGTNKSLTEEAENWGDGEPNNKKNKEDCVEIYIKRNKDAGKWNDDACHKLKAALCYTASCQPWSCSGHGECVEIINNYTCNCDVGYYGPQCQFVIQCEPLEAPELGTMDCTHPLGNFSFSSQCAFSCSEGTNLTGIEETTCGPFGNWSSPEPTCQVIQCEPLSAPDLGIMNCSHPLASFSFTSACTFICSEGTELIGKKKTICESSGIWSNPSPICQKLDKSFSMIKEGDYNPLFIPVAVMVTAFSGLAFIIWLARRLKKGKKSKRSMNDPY
Assay: binding to leukocytes (e.g. FACS analysis)

- binding result: binds
B1: HuDreg 55 humanized anti-L-selectin antibody (antibody, human IgG4, kappa, V domains shown)
VH: EVQLVESGGGLVQPGGSLRLSCAASGFTFSTYAMSWVRQAPGKGLEWVASISTGGSTYYPDSVKGRFTISRDNAKNTLYLQMNSLRAEDTAVYYCARDYDGYFDYWGQGTLVTVSS
VL: DIQMTQSPSSLSASVGDRVTITCKASQSVDYDGDSYMNWYQQKPGKAPKLLIYAASNLESGIPSRFSGSGSGTDFTLTISSLQPEDFATYYCQQSNEDPWTFGQGTKVEIKR
